Results from PMC11476691, “ATM1, an essential conserved transporter in Apicomplexa, bridges mitochondrial and cytosolic [Fe-S] biogenesis” (PLOS Pathogens, 2024).

Legend:
PfATM1-CTD = target: T1, PfATM1-CTD (Plasmodium falciparum, UniProt Q8IDH9); test: UV-VIS spectroscopy; type: binding; settings: as purified; lower intensity than full length
T1 construct: gene ABCB6
T1 sequence (Q8IDH9 807-1049): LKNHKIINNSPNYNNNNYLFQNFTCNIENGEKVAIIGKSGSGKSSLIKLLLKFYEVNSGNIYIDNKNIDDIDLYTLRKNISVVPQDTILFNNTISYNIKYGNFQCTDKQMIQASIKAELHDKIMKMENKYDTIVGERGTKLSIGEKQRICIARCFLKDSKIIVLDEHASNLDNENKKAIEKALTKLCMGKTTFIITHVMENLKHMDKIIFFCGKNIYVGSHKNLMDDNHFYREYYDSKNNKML

PfIscA2 = target: T2, PfIscA2 (Plasmodium falciparum, UniProt O97297); test: chemical reconstitution, cluster donor assay, UV-VIS; type: binding; settings: anaerobic, 25 mM Tris-Cl pH 7.5, 100 mM NaCl
T2 construct: gene IscA2; GST fusion from pGEX-KG in E. coli C43, GST removed by thrombin
T2 sequence (O97297 1-404): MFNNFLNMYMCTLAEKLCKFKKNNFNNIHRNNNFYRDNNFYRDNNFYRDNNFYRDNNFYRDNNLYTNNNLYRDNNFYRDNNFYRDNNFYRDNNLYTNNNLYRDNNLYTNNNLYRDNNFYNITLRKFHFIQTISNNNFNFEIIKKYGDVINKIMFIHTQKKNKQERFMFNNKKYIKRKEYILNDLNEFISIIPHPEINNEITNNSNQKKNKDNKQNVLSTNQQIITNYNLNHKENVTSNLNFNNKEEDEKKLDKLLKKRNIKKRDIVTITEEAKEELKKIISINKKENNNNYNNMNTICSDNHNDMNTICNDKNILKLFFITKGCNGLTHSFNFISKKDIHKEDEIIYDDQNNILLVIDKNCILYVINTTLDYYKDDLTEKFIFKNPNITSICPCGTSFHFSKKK

PfIscU = target: T3, PfIscU (Plasmodium falciparum, UniProt Q8IKT4); test: as above; type: binding; settings: anaerobic, 25 mM Tris-Cl pH 7.5, 100 mM NaCl
T3 construct: gene IscU; GST fusion from pGEX-KG in E. coli BL21(DE3), GST removed by thrombin
T3 sequence (Q8IKT4 1-162): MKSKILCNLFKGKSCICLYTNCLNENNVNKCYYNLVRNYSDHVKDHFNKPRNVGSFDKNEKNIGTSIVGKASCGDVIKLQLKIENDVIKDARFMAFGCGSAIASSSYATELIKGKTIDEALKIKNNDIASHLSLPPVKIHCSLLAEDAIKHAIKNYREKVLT

[1] = substrate: Nc1ncnc2c1ncn2[C@@H]1O[C@H](COP(=O)(O)OP(=O)(O)OP(=O)(O)O)[C@@H](O)[C@H]1O; test: ATPase, phosphate release (EnzChek MESG/PNP); type: biochemical, Plasmodium falciparum; settings: 500 nM holo-PfATM1, increasing ATP, no GSSG
[2] = target: the molecule itself; test: SDS-PAGE of the purified protein; purified PfATM1-CTD on Coomassie-stained SDS-PAGE and western blot with anti-6XHis Ab; dimer of about 60 kDa beside the monomer of about 30 kDa; broken with DTT and urea
[3] = target: the molecule itself; test: SEC + native gel or EMSA; Superdex S-200; fractions electrophoresed on 6% native-PAGE; dimer to monomers

## [S]12[Fe]3[S]4[Fe]1[S]1[Fe]2[S]3[Fe]41 [[4Fe-4S]]
PfATM1-CTD
  UV-VIS spectroscopy: A lower intensity [4Fe-4S] peak was also observed in PfATM1-CTD
PfIscA2
  chemical reconstitution, cluster donor assay, UV-VIS: Reconstituted PfIscU and PfIscA2 carrying [4Fe-4S] were then used as cluster donors
PfIscU
  chemical reconstitution, cluster donor assay, UV-VIS: Reconstituted PfIscU and PfIscA2 carrying [4Fe-4S] were then used as cluster donors

B1: PfATM1 (PfABCB6 / PfMDR6) (Plasmodium falciparum 3D7) (protein)
chain: RISDEFYSSFLYHSYIENLKSTKEYVYFIYLQDIYYNINIFKNKGRLYISNNGLCNDKLKDNNNNNNINSNNFGNSYNAYTKKKSFYHSFNDLNEAKEIRKKRKNEKSEKNIVEYLLCNIINPNENYHIQNIYNHNLNNNVSIEIHKKNDSVMYHYNNEKKTKTSKMTTDIKLKQINNVYIKYVPYKNKIITLACPNKYYPTLYRYFSSHTNKKEDAEENDKNKNININNVDNRYKEDFMYGCENKNDSEKHKKTTNNNFGDEFEKLKVKELDKILNKLEMLYDNKNNKMNINVKILGYIFKNFLLKNKELKRKIFCSLFFLLCSKMAIIYTPILLSTFIENVNLQKSLSNNIDIYSTNKSSVLLLCAYVFSRVLSSTMNELRNSVFSNISQKISTFVSKLFFYKIHNLNLTYILSKKNGELSFIFNRGCKSITNLLNVMVFQIIPIIIEFILYLYILTYKIHYTVSLVTCFNMFLYVLFTTLITKRRTIIRKHMNKAEQNTFNIFLDSIQNVEQVKYYTNEIHELKKFIKEQKKYEKEAINVQKSLSFLNFGQQIILNTNLFLCMYLTYLNIANDIFPFSYLILVNTLLFQLAMPLNMFGTIYRETKLSLVDIESMIKILVKKIKSPDYGNQMLIKNGNIKFENVYFKYPLNEDINGLEQNYQAKEKDPNIINNINNINNINNINNINNINSINNIYTFESNVKNISSTNMITSSINKLKKWYLDKVKDNKKNVQYNNNDVKKTNPNITKNLNKEIKENINTHLKNHKIINNSPNYNNNNYLFQNFTCNIENGEKVAIIGKSGSGKSSLIKLLLKFYEVNSGNIYIDNKNIDDIDLYTLRKNISVVPQDTILFNNTISYNIKYGNFQCTDKQMIQASIKAELHDKIMKMENKYDTIVGERGTKLSIGEKQRICIARCFLKDSKIIVLDEHASNLDNENKKAIEKALTKLCMGKTTFIITHVMENLKHMDKIIFFCGKNIYVGSHKNLMDDNHFYREYYDSKNNKML
notes: predicted mature form aa 43-1049 (MTS removed), E. coli YbeL hydrophilic domain (beta) and 6xHis fused at both N- and C-termini (pET28a beta-PfATM1-beta), E. coli C43, 152 kDa monomer, homodimer
[1]
  Km: 178.9 ± 34.86 µM
  kcat: 0.129 ± 0.00767 s⁻¹

B2: PfATM1-CTD (domain or fragment, P. falciparum, UniProt Q8IDH9 807-1049, looked up)
chain: LKNHKIINNSPNYNNNNYLFQNFTCNIENGEKVAIIGKSGSGKSSLIKLLLKFYEVNSGNIYIDNKNIDDIDLYTLRKNISVVPQDTILFNNTISYNIKYGNFQCTDKQMIQASIKAELHDKIMKMENKYDTIVGERGTKLSIGEKQRICIARCFLKDSKIIVLDEHASNLDNENKKAIEKALTKLCMGKTTFIITHVMENLKHMDKIIFFCGKNIYVGSHKNLMDDNHFYREYYDSKNNKML
notes: P. falciparum ATM1 (PfATM1, ABCB6, MDR6), PF3D7_1352100, C-terminal ATPase domain, aa 807-1049; Cloned in pET23a; About 30 kDa, with a dimeric form of about 60 kDa on SDS-PAGE; also called C-terminal ATPase domain of PfATM1; source: E. coli BL21 (DE3), purified (Ni-NTA, SEC Superdex S-75)
[2]
  stoichiometry N: 2

B3: recombinant PfATM1 (6X-His tagged β-PfATM1-β) (natural protein, P. falciparum, UniProt Q8IDH9 43-1049, looked up)
chain: RISDEFYSSFLYHSYIENLKSTKEYVYFIYLQDIYYNINIFKNKGRLYISNNGLCNDKLKDNNNNNNINSNNFGNSYNAYTKKKSFYHSFNDLNEAKEIRKKRKNEKSEKNIVEYLLCNIINPNENYHIQNIYNHNLNNNVSIEIHKKNDSVMYHYNNEKKTKTSKMTTDIKLKQINNVYIKYVPYKNKIITLACPNKYYPTLYRYFSSHTNKKEDAEENDKNKNININNVDNRYKEDFMYGCENKNDSEKHKKTTNNNFGDEFEKLKVKELDKILNKLEMLYDNKNNKMNINVKILGYIFKNFLLKNKELKRKIFCSLFFLLCSKMAIIYTPILLSTFIENVNLQKSLSNNIDIYSTNKSSVLLLCAYVFSRVLSSTMNELRNSVFSNISQKISTFVSKLFFYKIHNLNLTYILSKKNGELSFIFNRGCKSITNLLNVMVFQIIPIIIEFILYLYILTYKIHYTVSLVTCFNMFLYVLFTTLITKRRTIIRKHMNKAEQNTFNIFLDSIQNVEQVKYYTNEIHELKKFIKEQKKYEKEAINVQKSLSFLNFGQQIILNTNLFLCMYLTYLNIANDIFPFSYLILVNTLLFQLAMPLNMFGTIYRETKLSLVDIESMIKILVKKIKSPDYGNQMLIKNGNIKFENVYFKYPLNEDINGLEQNYQAKEKDPNIINNINNINNINNINNINNINSINNIYTFESNVKNISSTNMITSSINKLKKWYLDKVKDNKKNVQYNNNDVKKTNPNITKNLNKEIKENINTHLKNHKIINNSPNYNNNNYLFQNFTCNIENGEKVAIIGKSGSGKSSLIKLLLKFYEVNSGNIYIDNKNIDDIDLYTLRKNISVVPQDTILFNNTISYNIKYGNFQCTDKQMIQASIKAELHDKIMKMENKYDTIVGERGTKLSIGEKQRICIARCFLKDSKIIVLDEHASNLDNENKKAIEKALTKLCMGKTTFIITHVMENLKHMDKIIFFCGKNIYVGSHKNLMDDNHFYREYYDSKNNKML
notes: P. falciparum ATM1 (PfATM1, ABCB6, MDR6), PF3D7_1352100, predicted mature form, aa 43-1049; Monomer 152 kDa, dimer about 300 kDa with the fusion domains; also called full-length PfATM1; PfATM1 dimer; source: E. coli C43, purified from membranes (DDM and Triton X-114, Ni-NTA, SEC Superdex S-200); not shown: E. coli YbeL hydrophilic fusion domain (β), N-terminal, kept; E. coli YbeL hydrophilic …
[3]
  stoichiometry N: 2
